In the supplement of paper PMC11780869:

System: Bacillus subtilis
Assay: cleaved RNA product abundance (RNA/gDNA barcode ratio) relative to median wild-type variant (ratio to wild type); higher = more accumulation of the downstream cleavage product
Conditions: experiment (reporter, strain, medium): exp 8a: truncated aprE reporter, strain BJT201 with 2% xylose (RNase J1 expressed); cleavage site: glnRA (positions -5 to +31 mutated)
How it was run: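 Cleaved product abundance is expressed as the RNA:gDNA barcode ratio per construct, scaled to the median construct carrying the unmutated site. The constructs were barcoded, mutagenized RNase Y cleavage-site windows in truncated aprE or tetM reporter mRNAs integrated into the B. subtilis chromosome. Cultures grew in LB at 37°C from OD600 0.0003 to 0.3 before cleaved RNA was gel-selected and barcode-sequenced.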

Sequence | cleaved RNA product abundance
CGACATGTCCCGCTTCTTTCATTAATTCGTTAGCAACTGTTTTGCTATATACACTTACCTTTTAAGAGGAGGAAT | 0.629
CGACATGTCCCGCTTCTTTCATTAATTCGTTAGCAACTGTTTTGCTATATACATATACCTTTTAAGAGGAGGAAT | 0.859
CGACATGTCCCGCTTCTTTCATTAATTCGTTAGCAACTGTTTTGCTATATACATGTACCTTTTAAGAGGAGGAAT | 0.933
CGACATGTCCCGCTTCTTTCATTAATTCGTTAGCAACTGTTTTGCTATATACATTTAACTTTTAAGAGGAGGAAT | 1.68
CGACATGTCCCGCTTCTTTCATTAATTCGTTAGCAACTGTTTTGCTATATACATTTACCATTTAAGAGGAGGAAT | 1.22
CGACATGTCCCGCTTCTTTCATTAATTCGTTAGCAACTGTTTTGCTATATACATTTACCCTTTAAGAGGAGGAAT | 0.564
CGACATGTCCCGCTTCTTTCATTAATTCGTTAGCAACTGTTTTGCTATATACATTTACCGTTTAAGAGGAGGAAT | 0.591
CGACATGTCCCGCTTCTTTCATTAATTCGTTAGCAACTGTTTTGCTATATACATTTACCTTTTAAGAGGAGGAAT | 1.11
CGACATGTCCCGCTTCTTTCATTAATTCGTTAGCAACTGTTTTGCTATATACATTTACGTTTTAAGAGGAGGAAT | 0.881
CGACATGTCCCGCTTCTTTCATTAATTCGTTAGCAACTGTTTTGCTATATACATTTAGCTTTTAAGAGGAGGAAT | 1.88
CGACATGTCCCGCTTCTTTCATTAATTCGTTAGCAACTGTTTTGCTATATACATTTATCTTTTAAGAGGAGGAAT | 1.4
CGACATGTCCCGCTTCTTTCATTAATTCGTTAGCAACTGTTTTGCTATATACATTTGCCTTTTAAGAGGAGGAAT | 0.536
CGACATGTCCCGCTTCTTTCATTAATTCGTTAGCAACTGTTTTGCTATATATATTTACCTTTTAAGAGGAGGAAT | 1.55
CGACATGTCCCGCTTCTTTCATTAATTCGTTAGCAACTGTTTTGCTATATTCATTTACCTTTTAAGAGGAGGAAT | 0.627
CGACATGTCCCGCTTCTTTCATTAATTCGTTAGCAACTGTTTTGCTATCTACATTTACCTTTTAAGAGGAGGAAT | 0.0856
CGACATGTCCCGCTTCTTTCATTAATTCGTTAGCAACTGTTTTGCTATTTACATTTACCTTTTAAGAGGAGGAAT | 0.134
CGACATGTCCCGCTTCTTTCATTAATTCGTTAGCAACTGTTTTGTTATATACATTTACCTTTTAAGAGGAGGAAT | 0.602
CGACATGTCCCGCTTCTTTCATTAATTCGTTAGCAATTGTTTTGCTATATACATTTACCTTTTAAGAGGAGGAAT | 1.67
CGACATGTCCCGCTTCTTTCATTAATTCGTTAGCACCTGTTTTGCTATATACATTTACCTTTTAAGAGGAGGAAT | 0.658
CGACATGTCCCGCTTCTTTCATTAATTCGTTAGTAACTGTTTTGCTATATACATTTACCTTTTAAGAGGAGGAAT | 0.445
CGACATGTCCCGCTTCTTTCATTAATTCGTTATCAACTGTTTTGCTATATACATTTACCTTTTAAGAGGAGGAAT | 0.31
CGACATGTCCCGCTTCTTTCATTAATTCGTTGGCAACTGTTTTGCTATATACATTTACCTTTTAAGAGGAGGAAT | 0.687
CGACATGTCCCGCTTCTTTCATTAATTCGTTTGCAACTGTTTTGCTATATACATTTACCTTTTAAGAGGAGGAAT | 0.815
CGACATGTCCCGCTTCTTTCATTAATTTGTTAGCAACTGTTTTGCTATATACATTTACCTTTTAAGAGGAGGAAT | 1.37
CGACATGTCCCGCTTCTTTCATTACACCGTTAGCAACTGTTTTGCTATATACATTTACCTTTTAAGAGGAGGAAT | 1.39
CGACATGTCCCGCTTCTTTCATTACGCCGTTAGCAACTGTTTTGCTATATACATTTACCTTTTAAGAGGAGGAAT | 1.03
CGACATGTCCCGCTTCTTTCATTACTACCTTAGCAACTGTTTTGCTATATACATTTACCTTTTAAGAGGAGGAAT | 0.4
